Assays:
Type in all cases: biochemical
Design in all cases: key to Activity of mutant relative to wild-type Gaussia luciferase without the signal peptide: ratio of mutant luminescence intensity to wild-type Gaussia luciferase
[1] = Luminescence activity assay of purified Gaussia luciferase mutants on coelenterazine derivative ZS2; conditions: Substrate ZS2 (Table 16)
Outline: (§1)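 Readout: luminescence intensity, as ratio to signal-peptide-free wild-type enzyme. Enzyme 1 μg/mL, substrate 100 μM stock, 10 μL + 90 μL; buffer 50 mM Tris-HCl pH 8.0, 100 mM NaCl, 0.1% Tween-20.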

[2] = Luminescence activity assay of purified Gaussia luciferase mutants on fluoro-coelenterazine; conditions: Substrate f-CTZ (Table 16)
Procedure: In this Example, the protein concentration was determined with a BCA quantitative kit (Thermo Scientific™ Pierce™ BCA Protein Assay Kit) accurately. The purified luciferase obtained in Example 5 was diluted with diluent (50 mM Tris-HCl, pH 8.0, 100 mM NaCl, 0.1% (v/v) Tween-20) to 1 μg/mL. The diluted luciferase, taken for 10 μL, was moved into a black 96-well plate, then added with 90 μL of the substrates coelenterazine, fluoro-coelenterazine or coelenterazine derivative ZS2 (purchased from Biolab) which was diluted into 100 μM with the same diluent, and the luminescence intensity of the plate was read with a self-luminescence module of a microplate reader. The mutation site of the mutant, the measured luminescence intensity, the ratio of luminescence intensities of the advantageous mutants to the wild-type Gaussia luciferase without the signal peptide having the sequence shown in SEQ ID NO: 3 are shown in Table 15. The results of catalytic activity assay of the advantageous mutants relative to the wild-type Gaussia luciferase without the signal peptide having the sequence shown in SEQ ID NO: 3 on substrate coelenterazine are shown in FIG. 6. […] The results of catalytic activity assay of the advantageous mutants relative to the wild-type Gaussia luciferase without the signal peptide having the sequence shown in SEQ ID NO: 3 on substrate fluoro-coelenterazine are shown in FIG. 7.
The new mutant library constructed in Example 7 was screened and tested for substrate specificity. Expression and purification schemes were the same as that in Example 5, and the activity assay scheme was the same as that in Example 6. The respective catalytic activities of combinatorial mutants on coelenterazine, fluoro-coelenterazine or coelenterazine derivative ZS2, and coelenterazine derivative ZS26 (purchased from BIOLAB) were assayed, and comparisons among the substrate specificities of the combinatorial mutants were based on the ratios of catalytic activities on two corresponding substrates.

[3] = Luminescence activity assay of purified Gaussia luciferase mutants on coelenterazine; conditions: Substrate CTZ (Table 16)
Outline: as §1

Molecule | Activity of mutant relative to wild-type Gaussia luciferase without the signal peptide [1] | Activity of mutant relative to wild-type Gaussia luciferase without the signal peptide [2] | Activity of mutant relative to wild-type Gaussia luciferase without the signal peptide [3]
I10T C11S A13D A15I E16R A17S: Gaussia luciferase mutant (protein, SIGNAL (1)..(17), Gaussia luciferase mutant) MGVKVLFALTSIDVIRSKPTENNEDFNIVAVASNFATTDLDADRGKLPGKKLPLEVLKEMEANARKAGCTRGCLICLSHIKCTPKMKKFIPGRCHTYEGDKESAQGGIGEAIVDIPEIPGFKDLEPMEQFIAQVDLCVDCTTGCLKGLANVQCSDLLKKWLPQRCATFASKIQGQVDKIKGAGGD | 0.116 | 0.086 | 0.071
F26V N27Y V29N A30D V31D D32L S33R A36R T37W L40Y K180R: Gaussia luciferase mutant (protein, SIGNAL (1)..(17), Gaussia luciferase mutant) MGVKVLFALICIAVAEAKPTENNEDVYINDDLRNFRWTDYDADRGKLPGKKLPLEVLKEMEANARKAGCTRGCLICLSHIKCTPKMKKFIPGRCHTYEGDKESAQGGIGEAIVDIPEIPGFKDLEPMEQFIAQVDLCVDCTTGCLKGLANVQCSDLLKKWLPQRCATFASKIQGQVDKIRGAGGD | 0.063 | 0.065 | 0.072
A30G V31I A32V S33G A36N T37D L40R: Gaussia luciferase mutant (protein, SIGNAL (1)..(17), Gaussia luciferase mutant) MGVKVLFALICIAVAEAKPTENNEDFNIVGIVGNFNDTDRDADRGKLPGKKLPLEVLKEMEANARKAGCTRGCLICLSHIKCTPKMKKFIPGRCHTYEGDKESAQGGIGEAIVDIPEIPGFKDLEPMEQFIAQVDLCVDCTTGCLKGLANVQCSDLLKKWLPQRCATFASKIQGQVDKIKGAGGD | 0.116 | 0.615 | 0.138
F26T N27D V29P A30G V31I A32G S33I A36I T37L L40I: Gaussia luciferase mutant (protein, SIGNAL (1)..(17), Gaussia luciferase mutant) MGVKVLFALICIAVAEAKPTENNEDTDIPGIGINFILTDIDADRGKLPGKKLPLEVLKEMEANARKAGCTRGCLICLSHIKCTPKMKKFIPGRCHTYEGDKESAQGGIGEAIVDIPEIPGFKDLEPMEQFIAQVDLCVDCTTGCLKGLANVQCSDLLKKWLPQRCATFASKIQGQVDKIKGAGGD | 0.224 | 0.210 | 0.231
F26S N27Y V29C A32G S33E A36Q T37G L40T: Gaussia luciferase mutant (protein, SIGNAL (1)..(17), Gaussia luciferase mutant) MGVKVLFALICIAVAEAKPTENNEDSYICAVGENFQGTDTDADRGKLPGKKLPLEVLKEMEANARKAGCTRGCLICLSHIKCTPKMKKFIPGRCHTYEGDKESAQGGIGEAIVDIPEIPGFKDLEPMEQFIAQVDLCVDCTTGCLKGLANVQCSDLLKKWLPQRCATFASKIQGQVDKIKGAGGD | 0.126 | 0.143 | 0.119
F26Y N27Y V29A A30G S33V A36V T37S L40G: Gaussia luciferase mutant (protein, SIGNAL (1)..(17), Gaussia luciferase mutant) MGVKVLFALICIAVAEAKPTENNEDYYIAGVAVNFVSTDGDADRGKLPGKKLPLEVLKEMEANARKAGCTRGCLICLSHIKCTPKMKKFIPGRCHTYEGDKESAQGGIGEAIVDIPEIPGFKDLEPMEQFIAQVDLCVDCTTGCLKGLANVQCSDLLKKWLPQRCATFASKIQGQVDKIKGAGGD | 0.177 | 0.192 | 0.219

The next lines start with the values.

Activity of mutant relative to wild-type Gaussia luciferase without the signal peptide [1] | Activity of mutant relative to wild-type Gaussia luciferase without the signal peptide [2] | Activity of mutant relative to wild-type Gaussia luciferase without the signal peptide [3] | Molecule
1.065 | 0.520 | 2.527 | A42G Q152C T167G S170T G174N K178S A182Y G183A: Gaussia luciferase mutant (protein, SIGNAL (1)..(17), Gaussia luciferase mutant) MGVKVLFALICIAVAEAKPTENNEDFNIVAVASNFATTDLDGDRGKLPGKKLPLEVLKEMEANARKAGCTRGCLICLSHIKCTPKMKKFIPGRCHTYEGDKESAQGGIGEAIVDIPEIPGFKDLEPMEQFIAQVDLCVDCTTGCLKGLANVCCSDLLKKWLPQRCAGFATKIQNQVDSIKGYAGD
0.068 | 0.936 | 0.094 | H79K P84L V138D: Gaussia luciferase mutant (protein, SIGNAL (1)..(17), Gaussia luciferase mutant) MGVKVLFALICIAVAEAKPTENNEDFNIVAVASNFATTDLDADRGKLPGKKLPLEVLKEMEANARKAGCTRGCLICLSKIKCTLKMKKFIPGRCHTYEGDKESAQGGIGEAIVDIPEIPGFKDLEPMEQFIAQVDLCDDCTTGCLKGLANVQCSDLLKKWLPQRCATFASKIQGQVDKIKGAGGD
0.001 | 0.007 | 0.000 | H79K P84A E102S S103I A104G E110P L124M: Gaussia luciferase mutant (protein, SIGNAL (1)..(17), Gaussia luciferase mutant) MGVKVLFALICIAVAEAKPTENNEDFNIVAVASNFATTDLDADRGKLPGKKLPLEVLKEMEANARKAGCTRGCLICLSKIKCTAKMKKFIPGRCHTYEGDKSIGQGGIGPAIVDIPEIPGFKDMEPMEQFIAQVDLCVDCTTGCLKGLANVQCSDLLKKWLPQRCATFASKIQGQVDKIKGAGGD
0.452 | 0.479 | 0.750 | H79K P84K E102K S103I V138E: Gaussia luciferase mutant (protein, SIGNAL (1)..(17), Gaussia luciferase mutant) MGVKVLFALICIAVAEAKPTENNEDFNIVAVASNFATTDLDADRGKLPGKKLPLEVLKEMEANARKAGCTRGCLICLSKIKCTKKMKKFIPGRCHTYEGDKKIAQGGIGEAIVDIPEIPGFKDLEPMEQFIAQVDLCEDCTTGCLKGLANVQCSDLLKKWLPQRCATFASKIQGQVDKIKGAGGD
1.880 | 6.874 | 0.945 | K66N E102A S103T A104G E110G D123N L124M V138D K180: Gaussia luciferase mutant (protein) MGVKVLFALICIAVAEAKPTENNEDFNIVAVASNFATTDLDADRGKLPGKKLPLEVLKEMEANARNAGCTRGCLICLSHIKCTPKMKKFIPGRCHTYEGDKATGQGGIGGAIVDIPEIPGFKNMEPMEQFIAQVDLCDDCTTGCLKGLANVQCSDLLKKWLPQRCATFASKIQGQVDKIKGAGGD
0.064 | 13.108 | 1.921 | H79K P84L S103T A104G E110A: Gaussia luciferase mutant (protein, SIGNAL (1)..(17), Gaussia luciferase mutant) MGVKVLFALICIAVAEAKPTENNEDFNIVAVASNFATTDLDADRGKLPGKKLPLEVLKEMEANARKAGCTRGCLICLSKIKCTLKMKKFIPGRCHTYEGDKETGQGGIGAAIVDIPEIPGFKDLEPMEQFIAQVDLCVDCTTGCLKGLANVQCSDLLKKWLPQRCATFASKIQGQVDKIKGAGGD
